# Experimental data from the RNAGym collection of RNA variant scans (doi:10.1073/pnas.2313332121).
# Variants at the floor of the assay were thinned out.
# B1: TPR 5TU (parent)
# chain: GGAUCUUCUCGAUCUAACAAAAAAGACAAAUCUGCCACAAAGCUUGAGAGCAUCUUCGGAUGCAGAGGCGGCAGCCUUCGGUGGCGCGAUAGCGCCAACGUUCUCAACUAUGACACGCAAAACGCGUGCUCCGUUGAAUGGAGUUUAUCAUG
# Variants of: B1
# Experiment: polymerase ribozyme fitness, log enrichment relative to wild type (log ratio); higher = more active; in vitro selection for triplet polymerase activity
# Method in brief: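 Mutant libraries for each subunit of a heterodimeric triplet polymerase ribozyme were made by PCR and then transcribed. Each library underwent one round of in vitro selection in triplicate: annealing with a biotinylated primer, the partner subunit and triplets, frozen incubation at −7 °C, gel excision of extended constructs, streptavidin-bead capture and RT-PCR. Input and output libraries were Illumina-sequenced, and only genotypes with ≥10 input reads and ≥1 read per output were kept. Fitness is the logarithm, base 2, of genotype enrichment over wild-type enrichment, computed from inverse-variance-weighted replicate averages.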
row,Variant,polymerase ribozyme fitness (log ratio)
1,C75U C79A,≤ -4.2
2,G71U U144G,-1.84
3,A73U C76A U77A G94C U104G A106G C108U,≤ -4.2
4,A73G C93A U146C,-2.15
5,A73U C95A U104G,-4.05
6,C75U G88A A119U,≤ -4.2
7,C76A A142G U146A,-1.52
8,A73U G100U U104A G126C,≤ -4.2
9,C72U A147C,-1.72
10,C72U A147U,0.651
11,G74U C85G C99A A107U C125A,≤ -4.2
12,A73G C96G C105A U139A,≤ -4.2
13,C75U U145C U146G,-0.419
14,G71C C85U,-3.27
15,C75A C96U A97C,≤ -4.2
16,C75G A97U,≤ -4.2
17,G71C G92U,-3.46
18,G71C G92A,≤ -4.2
19,G74U G88A A119U C125U,-3.95
20,A73U C96U C108G G141A U146G,≤ -4.2
21,A73G G128C,-3.67
22,G74U A97U,-4.18
23,G71A U104C,-3.42
24,C75U G83A C105G G128U U134A A138U G141U,≤ -4.2

row,Variant,polymerase ribozyme fitness (log ratio)
1,A73C A121U G133U,≤ -4.2
2,C76A C85U G140C,-3.97
3,C75G G88A U146G,≤ -4.2
4,A73U G84A G92A A122C U134A,≤ -4.2
5,G74C G92U,-4.02
6,C75G U134G,-4
7,C72G A89G G92A C114G,≤ -4.2
8,C76A A119U U135C C149G,≤ -4.2
9,C75A U135C,≤ -4.2
10,A73U C105G,-3.79
11,A73G C95U,-0.166
12,C72A G140U,≤ -4.2
13,C75G G92U C103G A122C,≤ -4.2
14,C72A C85A,-3.85
15,A73C G81C A110G A121G,≤ -4.2
16,C72U C87A A98U A138C,≤ -4.2
17,C76A C96A G128C,≤ -4.2
18,A73U U90G G117U G133U,≤ -4.2
19,C76A C118A,-0.944
20,G71U G84U U101C G117U C123U,-4.15
21,A73U G84A U144C,-1.83
22,G71C G84A A119U,-2.68
23,C72U G86A C95A A97G A98U U104A A122U,≤ -4.2
24,C75U C85U U111G A121U G152A,≤ -4.2

row,Variant,polymerase ribozyme fitness (log ratio)
1,G74A C85G,-3.83
2,G74A C85U,-3.54
3,C72A U78G C85U A97U G140C,≤ -4.2
4,C72U A91U C96G,≤ -4.2
5,C75U G92U G112C A113U C114G,≤ -4.2
6,C75G G81U G84C A137U U146C,≤ -4.2
7,A73U G86U,-4.19
8,C72G G81U C87A C95U U104A,≤ -4.2
9,C72U C87U U101G G124C,-1.6
10,A73G G86A,-2.14
11,A73G C95U A122U C125U U127G A138G,≤ -4.2
12,C76A C96U G140U,-3.67
13,G71C C76G A113U G124A,≤ -4.2
14,A73U A150G,-2.68
15,C76A G83C A137G,-3.62
16,G71U A142C,≤ -4.2
17,C76A C95U A142G,-1.94
18,C75U C85U G86C,-1.49
19,C75U A91C A119G G136U,≤ -4.2
20,G71U C108U,≤ -4.2
21,C72G C108U A137C,≤ -4.2
22,A73G C125G,-0.161
23,C76A U78C C103G,≤ -4.2
24,C72U U134A,-2.32

row,Variant,polymerase ribozyme fitness (log ratio)
1,C75G C85U A106C A115G G141U,≤ -4.2
2,C75U U139A G140C,-4.11
3,G74C A150C,≤ -4.2
4,G74U C85G,≤ -4.2
5,A73G C85U C96G C108G U127G G136C,≤ -4.2
6,C72U G126U C132A,-4.12
7,C75A G80C C105G,≤ -4.2
8,C76A C85A A138G U145C,≤ -4.2
9,C75U G84U,-2.45
10,G71U G86U C125A A138G,-3.99
11,G71U G74C A120C,≤ -4.2
12,A73G C85A,-1.22
13,A73G C85U G88A A119U U134A G140C,≤ -4.2
14,A73G C93U A110U,≤ -4.2
15,C76A G83U A106G,-3.45
16,G74A A106G A122U,≤ -4.2
17,C75A G83A A98U,-4.16
18,A73U C85U G117U,-0.841
19,A73C A113C,≤ -4.2
20,C75U G83U C129G U144G,≤ -4.2
21,G74A G100U U104C U109G U146A,≤ -4.2
22,C76A A91U,≤ -4.2
23,C76A A91G,-3.83
24,C76A G84A U134G,-2.67

row,Variant,polymerase ribozyme fitness (log ratio)
1,G74C C76A C87U C114U C116U,≤ -4.2
2,C72G U77G G84A C114G,≤ -4.2
3,G74A A89C G94U U109G G117U,≤ -4.2
4,C72G G83U G124U G128U G133A U148A,≤ -4.2
5,G74C A97U C132A G141A G143C,≤ -4.2
6,C75U C96G,0.716
7,G71C G83U G141A A147C C149A,≤ -4.2
8,A73G C114U,-2.66
9,G74A G80A C85A G92A C125A G136C A138G,≤ -4.2
10,C72U C85G,-1.95
11,C75G A89U C93G U104G A147C,≤ -4.2
12,G74A U82G G94U G136A,≤ -4.2
13,A73G C76A G88C C105G C108G C114U G136U,-3.91
14,C76A G86U,-1.75
15,A73C C96G C118U G143U,≤ -4.2
16,C76A C123U U134A,-1.5
17,G71C C93U C95G C99G A115C,-3.95
18,C72G C96U C116U,≤ -4.2
19,C75G C85G A147U,≤ -4.2
20,G71U A89U,-2.83
21,G74A U145A,-3.36
22,A73U U102G,≤ -4.2
23,A73G A97G,0.222
24,A73G C96U A119U,-0.341

row,Variant,polymerase ribozyme fitness (log ratio)
1,A73G U77C G88C,≤ -4.2
2,C72U A91U G92A U127G,≤ -4.2
3,A73G G88A A107G,≤ -4.2
4,A73U C93U G136A,-1.59
5,C75U G136C,-2.6
6,G71C U82C,-2.48
7,C76A C93A,-3.88
8,A73U C118U,-0.982
9,C75U A137C,-3.47
10,C75A C87U,-3.81
11,G74C A89U U146C,≤ -4.2
12,C75U C85U,0.543
13,C75U C85A,-1.84
14,C72G,-3.79
15,C72U,-0.00972
16,C72A,-3.87
17,A73G U145G,-0.0134
18,A73G U148C,-2.55
19,A73G U148A,-3.81
20,A73U C75G G88C,≤ -4.2
21,C72U C93G A106G A121U,-2.98
22,C75G A142U,-3.7
23,C72U G124U A142G,-2
24,A73G C76U C93A C99A U145A,≤ -4.2

row,Variant,polymerase ribozyme fitness (log ratio)
1,C76A U82G C96U,-0.697
2,A73C C87G G141C,≤ -4.2
3,G71U C72A A91G C116A A138U,≤ -4.2
4,G71U G141U,-3.55
5,C72U G128U,-3.1
6,C75G G86C C87U,≤ -4.2
7,G74A U148A,≤ -4.2
8,C76A C85U,-0.443
9,C76A C85A,-1.96
10,C76A C79U C96A U139A,≤ -4.2
11,C76A C95U,0.252
12,C72U C76A G84A C87U A91G A106G C125A,≤ -4.2
13,C75G C85U C87A A113G,≤ -4.2
14,C75G C85U U101C,≤ -4.2
15,C72U U145A,0.261
16,A73G C93U G141U,0.326
17,A73G A107U,-4.1
18,C76A A97G,-1.4
19,C72A U148A,≤ -4.2
20,C72U G92U U135A G143A,-3.54
21,C72U G83A C93U U111C A120U G143U,≤ -4.2
22,C76A C87U A142G,-1.46
23,A73U C123U,-0.392
